Data published in PMC5118228 (EJNMMI Research, 2016).

How the values were obtained:
patients = conditions: in vivo; cited from earlier work
Description: Radiolabeled somatostatin analogs are known to accumulate in the renal proximal tubules, due to their net charge, electrostatic forces, and charge distribution from metal-chelation. This can result in a high absorbed dose and subsequent renal dysfunction.

nontumor-bearing mice = assay type: in vivo; conditions: control, 4 × 0.3 nmol unlabeled DOTATATE; nontumor-bearing mice; n=8
Description: MTD was defined as the highest dose given to the animals allowing 100% survival with no significant weight loss >15% throughout the experiment. Nontumor-bearing mice were randomly divided into seven cohorts used to evaluate MTD, six treatments and one control (n = 8/cohort); see Table 1. […] Control mice received DOTATATE (4 × 0.3 nmol) on four consecutive days. The animals were followed for 90 days. Serum was analyzed for the biomarker neutrophil gelatinase-associated lipocalin (NGAL) using ELISA (R&D Systems, 450 nm).

SMILES	reduction of renal uptake by co-infusion of L-lysine/L-arginine (patients)	survival at 90 days post-treatment (nontumor-bearing mice)
C[C@@H](O)[C@H](NC(=O)[C@@H]1CSSC[C@H](NC(=O)[C@@H](Cc2ccccc2)NC(=O)CN2CCN(CC(=O)[O-])CCN(CC(=O)[O-])CCN(CC(=O)[O-])CC2)C(=O)N[C@@H](Cc2ccc(O)cc2)C(=O)N[C@H](Cc2c[nH]c3ccccc23)C(=O)N[C@@H](CCCCN)C(=O)N[C@@H]([C@@H](C)O)C(=O)N1)C(=O)O.[177Lu+3] [^177Lu-DOTATATE, ^177Lu-[DOTA^0,Tyr^3]octreotate]	30–50%	–
C[C@@H](O)[C@H](NC(=O)[C@@H]1CSSC[C@H](NC(=O)[C@@H](Cc2ccccc2)NC(=O)CN2CCN(CC(=O)O)CCN(CC(=O)O)CCN(CC(=O)O)CC2)C(=O)N[C@@H](Cc2ccc(O)cc2)C(=O)N[C@H](Cc2c[nH]c3ccccc23)C(=O)N[C@@H](CCCCN)C(=O)N[C@@H]([C@@H](C)O)C(=O)N1)C(=O)O [DOTATATE]	–	all control animals survived
